Test [1] has as its target T1, IL-9R (Mus musculus, UniProt Q01114).
T1 sequence (Q01114 38-468): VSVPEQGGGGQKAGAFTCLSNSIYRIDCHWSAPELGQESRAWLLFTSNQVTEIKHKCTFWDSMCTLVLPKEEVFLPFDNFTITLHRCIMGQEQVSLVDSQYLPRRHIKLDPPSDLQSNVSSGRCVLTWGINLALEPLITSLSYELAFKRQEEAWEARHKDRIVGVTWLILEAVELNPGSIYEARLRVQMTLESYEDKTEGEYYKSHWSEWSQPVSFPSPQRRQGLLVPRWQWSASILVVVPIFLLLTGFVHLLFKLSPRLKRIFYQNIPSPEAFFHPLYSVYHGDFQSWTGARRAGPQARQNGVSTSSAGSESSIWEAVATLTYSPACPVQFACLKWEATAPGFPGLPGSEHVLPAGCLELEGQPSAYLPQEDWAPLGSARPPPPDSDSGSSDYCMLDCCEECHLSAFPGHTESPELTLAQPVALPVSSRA
Put plainly: Competitive binding of radiolabelled rIL-9 to TS1 cells (specificity of IL-9 binding). Also on record: a number of different cell types were tested for the presence of the IL-9R molecule; endogenous in cells. Particulars: labelled rIL-9 6.1×10^-10 M, 10^6 TS1 cells, 3 h 4° C., no competitor 4083 ± 16. Here is the method: In order to test whether the radioactive IL-9 would bind to TS1 cells which are mouse cells, which are IL-9 dependent, a competitive assay was carried out. Specifically, rIL-9 was incubated with TS1 cells in 140 ul of DMEM containing BSA (10 mg/ml) and Na3 N (10 mM). In order to determine the level of binding, a 100 fold excess of "cold", i.e., non-radiolabelledIL-9, was also mixed with the material. The rIL-9 was admixed at 6.1×10^-10 M, for three hours at 4° C., with 10^6 TS1 cells. Bound material was separated from free ligand via centrifugation over a layer of dibutyl and dioctyl phthalate (15:I). In addition, the experiments were repeated using various interleukins, interferon-γ ("INF-γ"), tumor necrosis factor ("TNF"), and granulocyte, macrophage colony stimulating factor ("GM-CSF"). All experiments were carried out in triplicate.

The target of test [2] is T1, IL-9R. Put plainly: Saturation binding of radiolabelled rIL-9 to TS-1 cells, Scatchard transformation. Also on record: endogenous in cells; host or cells: TS1 cells (mouse, IL-9 dependent). Here is the method:
Experiments were performed to study the saturation binding of rIL-9. In these studies, as depicted in FIGS. 4a and 4b, increasing concentrations of radiolabelled rIL-9 were incubated with TS-1 cells (5×10^6 cells, 4° C. for three hours). This binding assay, as with those described supra. used 140 ul of DMEM containing BSA and Na3 N, also as described supra. Binding plateaued at 1 nM concentration, with half maximal saturation being reached at approximately 100 pM (FIG. 4a).

[3] abbreviates: radiolabelled rIL-9, 5×10^6 TS-1 cells, 4° C., three hours (FIG. 4a).

For “IL-6: interleukin tested as competitor of IL-9 binding”, in the test with IL-9R [1] (competitor 6.7 × 10^-8 M), the “Bound Radioactivity” value is 4751 ± 61 cpm.

As to “IL-5: interleukin tested as competitor of IL-9 binding”, the “Bound Radioactivity” value with IL-9R [1] (competitor 2.7 × 10^-8 M) is 4642 ± 77 cpm. For the molecule “IL-1α: interleukin tested as competitor of IL-9 binding”, the “Bound Radioactivity” value with IL-9R [1] (competitor 8.7 × 10^-8 M) is reported as 4232 ± 177 cpm. Turning to “IL-4: interleukin tested as competitor of IL-9 binding”, in the test with IL-9R [1] (competitor 8.0 × 10^-8 M), the “Bound Radioactivity” value came out at 4154 ± 156 cpm.

B1: IFN-γ: interferon-γ tested as competitor of IL-9 binding (protein, UniProt P01579 24-161, looked up)
Interferon gamma: QDPYVKEAENLKKYFNAGHSDVADNGTLFLGILKNWKEESDRKIMQSQIVSFYFKLFKNFKDDQSIQKSVETIKEDMNVKFFNSNKKKRDDFEKLTNYSVTDLNVQRKAIHELIQVMAELSPAAKTGKRKRSQMLFRG
Regarding B1, in the test with IL-9R [1] (competitor 2.4 × 10^-8 M), the “Bound Radioactivity” value was 4944 ± 8 cpm.

B2: rIL-9: recombinant mouse IL-9 from baculovirus infected Sf9 cells, 22-25 kilodaltons; used unlabelled and 125I-labelled (protein, UniProt P15247 19-144, looked up)
Interleukin-9: QRCSTTWGIRDTNYLIENLKDDPPSKCSCSGNVTSCLCLSVPTDDCTTPCYREGLLQLTNATQKSRLLPVFHRVKRIVEVLKNITCPSFSCEKPCNQTMAGNTLSFLKSLLGTFQKTEMQRQKSRP
modifications: 125I-labelled in some uses
notes: recombinant mouse IL-9 from baculovirus infected Sf9 cells, 22-25 kilodaltons; used unlabelled and 125I-labelled
For B2, in the test with IL-9R [2] (Scatchard transformation, 3 runs, TS-1 cells (FIG. 4b)), the “density of IL-9 receptor” value is recorded as 3111±565 /cell. The Kd with IL-9R [2] (Scatchard transformation, 3 runs, TS-1 cells, single class of receptor (FIG. 4b)) came out at 0.103 ± 0.013 nM. Besides, in the test with IL-9R [2] (setting [3]), the “concentration at which binding plateaued” value was determined as 1 nM and the half maximal saturation result was “approximately 100 pM”. The “Bound Radioactivity” value with IL-9R [1] (competitor 1.2 × 10^-9 M) was 733 ± 21 cpm. In addition, the “Bound Radioactivity” value with IL-9R [1] (competitor 6.1 × 10^-8 M) is given as 80 ± 8 cpm.

B3: GM-CSF: granulocyte, macrophage colony stimulating factor tested as competitor of IL-9 binding (protein, UniProt P01587 18-141, looked up)
Granulocyte-macrophage …: APTRSPITVTRPWKHVEAIKEALNLLDDMPVTLNEEVEVVSNEFSFKKLTCVQTRLKIFEQGLRGNFTKLKGALNMTASYYQTYCPPTPETDCETQVTTYADFIDSLKTFLTDIPFECKKPGQK
As to B3, the “Bound Radioactivity” value with IL-9R [1] (competitor 6.4 × 10^-8 M) is listed as 4682 ± 63 cpm.

The values are drawn from patent US5180678A, “Uses of substantially pure interleukin-9 receptor” (Ludwig Institute for Cancer Research, priority 1992, dated 1993).
